Data as given in patent US20240400715A1 (VIBRANT PHARMA, published 2024).
Where a chain is given by its changes, count along the chain named. One block for each binder: values may come before it.

Experiments:
[1] = target: T1, human CD3ε/δ (ACRO systems, CDD-H52W1) (human, UniProt P07766 23-126; P04234 22-105); experiment: serum-stability ELISA, Day 6 vs Day 0
T1 construct: bought recombinant heterodimer; also called human CD3 epsilon/delta; Human CD3ε/CD3δ
Protocol: (§1) The samples to be tested were centrifuged at 4° C. at 12000 rpm for 30 minutes to remove the precipitate. 200 μl of each sample to be tested (0.5 mg/ml) was collected in a 1.5 ml Eppendorf tube. An equal volume of human serum (GEMINI, H2OYOOK) was added, mixed thoroughly, and the mixture was incubated in a 37° C. constant temperature CO₂ incubator. For a total of 10 days, 40 μl samples was aspirated every day and stored at −20° C.
(§2) Enzyme-linked immunosorbent assay (ELISA) was used to test the bispecific antibodies' binding to human CEA and human CD3 epsilon/delta antigen. The steps are as follows: the antigen human CD3ε/δ (ACRO systems, CDD-H52W1) and the recombinant tumor antigen human CEA (CEACAM-5/CD66e, ACRO systems, CE5-H5226) were diluted to 1 μg/ml with PBS, and then added to the 96-well plate at 100 μl per well. The wells were coated overnight at 4° C. After washing 3 times with 0.05% PBST, 200 μl 5% skimmed milk powder was added to each well and incubated at 37° C. for 2 h. After washing 3 times with 0.05% PBST, 100 μl primary antibody sample (10 μg/ml) was added to each well, and incubated at 37° C. for 2 h. After washing 3 times with 0.05% PBST, 100 μl (1:6000) diluted secondary antibody goat anti-human Fc-HRP (sigma, A2170) was added to each well, incubated at room temperature for 1 h. After washing 8 times with 0.05% PBST, 50 μl TMB color developing solution was added to each well, and incubated at room temperature for 10-15 min. 50 μl 1 mM HCl was added to each well to stop the color development. 450 nm Absorbance (OD) was read.
(§3) The binding of antibodies to antigen was calculated according to the following formula: Binding (%)=[(ODdayn−ODb)/(ODday0−ODb)]×100%. ODdayn: experimental well (the protein was stored in the serum for n days); ODday0: control well (the protein was not stored in the serum); ODb: blank well (no primary antibody added).

[2] = target: T1, human CD3ε/δ (ACRO systems, CDD-H52W1); experiment: serum-stability ELISA, Day 0 (reference)
[3] = target: T1, human CD3ε/δ (ACRO systems, CDD-H52W1); experiment: serum-stability ELISA, Day 10 vs Day 0
Protocol: as §1, §2, §3

[4] = target: T1, human CD3ε/δ (ACRO systems, CDD-H52W1); experiment: serum-stability ELISA, Day 2 vs Day 0
Protocol: as §1, §2, §3

[5] = target: T1, human CD3ε/δ (ACRO systems, CDD-H52W1); experiment: serum-stability ELISA, Day 1 vs Day 0
Protocol: as §1, §2, §3

[6] = target: T1, human CD3ε/δ (ACRO systems, CDD-H52W1); experiment: serum-stability ELISA, Day 9 vs Day 0
Protocol: as §1, §2, §3

[7] = target: T1, human CD3ε/δ (ACRO systems, CDD-H52W1); experiment: serum-stability ELISA, Day 5 vs Day 0
Protocol: as §1, §2, §3

[8] = target: T1, human CD3ε/δ (ACRO systems, CDD-H52W1); experiment: serum-stability ELISA, Day 7 vs Day 0
Protocol: as §1, §2, §3

[9] = target: T1, human CD3ε/δ (ACRO systems, CDD-H52W1); experiment: serum-stability ELISA, Day 7 vs Day 0; remark: listed apart in the source
Protocol: as §1, §2, §3

[10] = target: T1, human CD3ε/δ (ACRO systems, CDD-H52W1); experiment: serum-stability ELISA, Day 9 vs Day 0; remark: listed apart in the source
Protocol: as §1, §2, §3

[11] = target: T1, human CD3ε/δ (ACRO systems, CDD-H52W1); experiment: serum-stability ELISA, Day 5 vs Day 0; remark: listed apart in the source
Protocol: as §1, §2, §3

[12] = target: T1, human CD3ε/δ (ACRO systems, CDD-H52W1); experiment: serum-stability ELISA, Day 2 vs Day 0; remark: listed apart in the source
Protocol: as §1, §2, §3

[13] = target: T1, human CD3ε/δ (ACRO systems, CDD-H52W1); experiment: serum-stability ELISA, Day 0 (reference); remark: listed apart in the source
[14] = target: T1, human CD3ε/δ (ACRO systems, CDD-H52W1); experiment: serum-stability ELISA, Day 1 vs Day 0; remark: listed apart in the source
Protocol: as §1, §2, §3

[15] = target: T1, human CD3ε/δ (ACRO systems, CDD-H52W1); experiment: serum-stability ELISA, Day 10 vs Day 0; remark: listed apart in the source
Protocol: as §1, §2, §3

[16] = target: T1, human CD3ε/δ (ACRO systems, CDD-H52W1); experiment: serum-stability ELISA, Day 6 vs Day 0; remark: listed apart in the source
Protocol: as §1, §2, §3

B2: 209 (Fab (Light)-Knob-CEA+Fab (Heavy)-Hole) (bispecific antibody, human IgG4 S228P, kappa, F234A L235A)
light: QAVVTQESALTTSPGETVTLTCRSSTGAVTTSNYANWVQEKPDHLFTGLIGGTNKRAPGVPARFSGSLIGDKAALTITGAQTEDEAIYFCALWYSNLWVFGGGTKVEIKRTVAAPSVFIFPPSDEQLKSGTASVVCLLNNFYPREAKVQWKVDNALQSGNSQESVTEQDSKDSTYSLSSTLTLSKADYEKHKVYACEVTHQGLSSPVTKSFNRGECESKYGPPCPPCPAPEAAGGPSVFLFPPKPKDTLMISRTPEVTCVVVDVSQEDPEVQFNWYVDGVEVHNAKTKPREEQFNSTYRVVSVLTVLHQDWLNGKEYKCKVSNKGLPSSIEKTISKAKGQPREPQVYTLPPCQEEMTKNQVSLWCLVKGFYPSDIAVEWESNGQPENNYKTTPPVLDSDGSFFLYSRLTVDKSRWQEGNVFSCSVMHEALHNHYTQKSLSLSLGGGGSGGGGSEVQLVESGGGFVQAGESLTLSCTSSTLTFTPYRMAWYRQAPGKQRDLVADISSGDGRTTNYADFAKGRFTISRDNIKNTVFLRMTNLKPEDTAVYYCNTFVSFVGIARSWGQGTQVTVSS
heavy: EVKLLESGGGLVQPKGSLKLSCAASGFTFNTYAMNWVRQAPGKGLEWVARIRSKYNNYATYYADSVKDRFTISRDDSQSILYLQMNNLKTEDTAMYYCVRHGNFGNSYVSWFAYWGQGTLVTVSSASTKGPSVFPLAPCSRSTSESTAALGCLVKDYFPEPVTVSWNSGALTSGVHTFPAVLQSSGLYSLSSVVTVPSSSLGTKTYTCNVDHKPSNTKVDKRVESKYGPPCPPCPAPEAAGGPSVFLFPPKPKDTLMISRTPEVTCVVVDVSQEDPEVQFNWYVDGVEVHNAKTKPREEQFNSTYRVVSVLTVLHQDWLNGKEYKCKVSNKGLPSSIEKTISKAKGQPREPQVCTLPPSQEEMTKNQVSLSCAVKGFYPSDIAVEWESNGQPENNYKTTPPVLDSDGSFFLVSRLTVDKSRWQEGNVFSCSVMHEALHNRFTQKSLSLSL
notes: two-chain format: VL-CL fused to knob Fc and VHH
Binding % [1]: 105% | Binding % [2]: 100% | Binding % [3]: 107% | Binding % [4]: 103% | Binding % [5]: 102% | Binding % [6]: 108% | Binding % [7]: 108% | Binding % [8]: 109%

B3: 210 (Fab (Light)-Knob+Fab (Heavy)-Hole-CEA) (bispecific antibody, human IgG4 S228P, kappa, F234A L235A)
light: QAVVTQESALTTSPGETVTLTCRSSTGAVTTSNYANWVQEKPDHLFTGLIGGTNKRAPGVPARFSGSLIGDKAALTITGAQTEDEAIYFCALWYSNLWVFGGGTKVEIKRTVAAPSVFIFPPSDEQLKSGTASVVCLLNNFYPREAKVQWKVDNALQSGNSQESVTEQDSKDSTYSLSSTLTLSKADYEKHKVYACEVTHQGLSSPVTKSFNRGECESKYGPPCPPCPAPEAAGGPSVFLFPPKPKDTLMISRTPEVTCVVVDVSQEDPEVQFNWYVDGVEVHNAKTKPREEQFNSTYRVVSVLTVLHQDWLNGKEYKCKVSNKGLPSSIEKTISKAKGQPREPQVYTLPPCQEEMTKNQVSLWCLVKGFYPSDIAVEWESNGQPENNYKTTPPVLDSDGSFFLYSRLTVDKSRWQEGNVFSCSVMHEALHNHYTQKSLSLSL
heavy: EVKLLESGGGLVQPKGSLKLSCAASGFTFNTYAMNWVRQAPGKGLEWVARIRSKYNNYATYYADSVKDRFTISRDDSQSILYLQMNNLKTEDTAMYYCVRHGNFGNSYVSWFAYWGQGTLVTVSSASTKGPSVFPLAPCSRSTSESTAALGCLVKDYFPEPVTVSWNSGALTSGVHTFPAVLQSSGLYSLSSVVTVPSSSLGTKTYTCNVDHKPSNTKVDKRVESKYGPPCPPCPAPEAAGGPSVFLFPPKPKDTLMISRTPEVTCVVVDVSQEDPEVQFNWYVDGVEVHNAKTKPREEQFNSTYRVVSVLTVLHQDWLNGKEYKCKVSNKGLPSSIEKTISKAKGQPREPQVCTLPPSQEEMTKNQVSLSCAVKGFYPSDIAVEWESNGQPENNYKTTPPVLDSDGSFFLVSRLTVDKSRWQEGNVFSCSVMHEALHNRFTQKSLSLSLGGGGSGGGGSEVQLVESGGGFVQAGESLTLSCTSSTLTFTPYRMAWYRQAPGKQRDLVADISSGDGRTTNYADFAKGRFTISRDNIKNTVFLRMTNLKPEDTAVYYCNTFVSFVGIARSWGQGTQVTVSS
notes: two-chain format: VL-CL fused to knob Fc
Binding % [1]: 101% | Binding % [2]: 100% | Binding % [3]: 101% | Binding % [4]: 102% | Binding % [5]: 105% | Binding % [6]: 101% | Binding % [7]: 97.3% | Binding % [8]: 102%

B4: 302 (TA3), configuration of FIG. 1W (bispecific antibody)
heavy: EVQLVESGGGLVQPGGSLRLSCAASGYSFTGYTMNWVRQAPGKGLEWVALINPYKGVSTYNQKFKDRFTISVDKSKNTAYLQMNSLRAEDTAVYYCARSGYYGDSDWYFDVWGQGTLVTVSSASTKGPSVFPLAPCSRSTSESTAALGCLVKDYFPEPVTVSWNSGALTSGVHTFPAVLQSSGLYSLSSVVTVPSSSLGTKTYTCNVDHKPSNTKVDKRVESKYGPPCPPCPAPEAAGGPSVFLFPPKPKDTLMISRTPEVTCVVVDVSQEDPEVQFNWYVDGVEVHNAKTKPREEQFNSTYRVVSVLTVLHQDWLNGKEYKCKVSNKGLPSSIEKTISKAKGQPREPQVYTLPPCQEEMTKNQVSLWCLVKGFYPSDIAVEWESNGQPENNYKTTPPVLDSDGSFFLYSRLTVDKSRWQEGNVFSCSVMHEALHNHYTQKSLSLSL
chain: EVQLVESGGGFVQAGESLTLSCTSSTLTFTPYRMAWYRQAPGKQRDLVADISSGDGRTTNYADFAKGRFTISRDNIKNTVFLRMTNLKPEDTAVYYCNTFVSFVGIARSWGQGTQVTVSSESKYGPPCPPCPAPEAAGGPSVFLFPPKPKDTLMISRTPEVTCVVVDVSQEDPEVQFNWYVDGVEVHNAKTKPREEQFNSTYRVVSVLTVLHQDWLNGKEYKCKVSNKGLPSSIEKTISKAKGQPREPQVCTLPPSQEEMTKNQVSLSCAVKGFYPSDIAVEWESNGQPENNYKTTPPVLDSDGSFFLVSRLTVDKSRWQEGNVFSCSVMHEALHNRFTQKSLSLSL
light: DIQMTQSPSSLSASVGDRVTITCRASQDIRNYLNWYQQKPGKAPKLLIYYTSRLESGVPSRFSGSGSGTDYTLTISSLQPEDFATYYCQQGNTLPWTFGQGTKVEIK
notes: not shown: kappa light chain constant domain (CL)
Binding % [9]: 104% | Binding % [10]: 103% | Binding % [11]: 110% | Binding % [12]: 104% | Binding % [13]: 100% | Binding % [14]: 108% | Binding % [15]: 106% | Binding % [16]: 107%

The next lines start with the values.

Binding % [1]: 97.4% | Binding % [2]: 100% | Binding % [3]: 95.7% | Binding % [4]: 96.1% | Binding % [5]: 95.7% | Binding % [6]: 98.8% | Binding % [7]: 100% | Binding % [8]: 95.9%
B1: 208 (Fab (Heavy)-Knob+Fab (Light)-Hole-CEA) (bispecific antibody, human IgG4 S228P, kappa, F234A L235A)
heavy: B2 heavy with C354Y, S359C, S371W, A373L, V412Y, R440H, F441Y
light: B2 light with Y347C, C352S, W364S, L366A, Y405V, H433R, Y434F
notes: two-chain format: VL-CL fused to hole Fc and VHH

Binding % [9]: 107% | Binding % [10]: 101% | Binding % [11]: 100% | Binding % [12]: 106% | Binding % [13]: 100% | Binding % [14]: 108% | Binding % [15]: 101% | Binding % [16]: 105%
B5: 304 (TA5), configuration of FIG. 1W (bispecific antibody)
heavy: DVQLVQSGAEVKKPGASVKVSCKASGYTFTRYTMHWVRQAPGQGLEWIGYINPSRGYTNYADSVKGRFTITTDKSTSTAYMELSSLRSEDTATYYCARYYDDHYCLDYWGQGTTVTVSSASTKGPSVFPLAPCSRSTSESTAALGCLVKDYFPEPVTVSWNSGALTSGVHTFPAVLQSSGLYSLSSVVTVPSSSLGTKTYTCNVDHKPSNTKVDKRVESKYGPPCPPCPAPEAAGGPSVFLFPPKPKDTLMISRTPEVTCVVVDVSQEDPEVQFNWYVDGVEVHNAKTKPREEQFNSTYRVVSVLTVLHQDWLNGKEYKCKVSNKGLPSSIEKTISKAKGQPREPQVYTLPPCQEEMTKNQVSLWCLVKGFYPSDIAVEWESNGQPENNYKTTPPVLDSDGSFFLYSRLTVDKSRWQEGNVFSCSVMHEALHNHYTQKSLSLSL
chain: B4 chain
light: DIVLTQSPATLSLSPGERATLSCRASQSVSYMNWYQQKPGKAPKRWIYDTSKVASGVPARFSGSGSGTDYSLTINSLEAEDAATYYCQQWSSNPLTFGGGTKVEIK
notes: VL row printed 'TAS VL', read as TA5 VL; full chains assembled from parts; not shown: kappa light chain constant domain (CL)
